Measurements from patent US20230287369A1, “A NEW, NON-SPECIFIC THERMOLABILE NUCLEASE ACTIVE AT LOW TEMPERATURE, IN WIDE PH RANGE AND HIGH CONCENTRATION IN SALTS” (Blirt S.A., priority 2019, published 2023).

Legend:
Assay type in all cases: biochemical
[1] = tested on: herring sperm genomic DNA; test: Nucleolytic (specific) activity of PPR nuclease, modified Kunitz's test: effect of pH, temperature and Mg2+
Method: FIG. 2—showing pH influence on PPR nucleolytic activity depending on NaCl salt concentration. Measurement using modificated Kunitz's test, conditions: 20 mM MgCh, temperature of 22° C.
FIG. 3—showing temperature and high salts (500 mM NaCl+100 mM MgCL) influence on PPR nucleolytic activity. Measurement using modificated Kunitz's test.
FIG. 4—showing influence of Mg^2, ions on PPR nucleolytic activity in selected pH and temperature conditions. Maximum PPR activity is obtained at 50-150 mM concentration at 37° C. in a pH 8.0 buffer.
(§1) In order to determine PPR nuclease specific activity serial dilutions of the enzyme are incubated in a reaction buffer containing 20 mM Tris-HCl (pH 8.0), 20 mM MgCh and 100 pg of herring sperm genomic DNA of 300 m ? volume at 37° C. for 30 min. The reaction is stopped by adding 300 m ? 4% solution of perchloric acid to 2% final concentration and sample incubation on ice for 60 min. As a control, 100 pg DNA is incubated without the addition of nuclease. Afterwards, the samples are centrifuged for 10 minutes until separation of the precipitate of non-degraded DNA. The content of free nucleotides and oligonucleotide fragments smaller than 10 bp is determined in supernatant by measuring absorbance at 260 nm wavelength. 1 U nuclease activity is determined as enzyme quantity causing increase of absorbance in the studied sample at 260 nm wavelength of 1.0 within 30 minutes of reaction at 37° C.
In order to determine optimal pH for enzyme nucleolytic activity reaction is conducted as described in Example 4. The solutions of pH 6.0-10.0 with 1 U enzyme in reaction mixtures containing 0, 250, 500 mM NaCl, respectively.
The determination of the optimal temperature for enzyme nucleolytic activity reaction is performed as described in Example 4 at various temperatures from 6° C. to 45° C. with 1 U enzyme in the reaction mixture containing 50 mM Tris, pH 8.0 and variable concentrations of MgCh (5 mM and 100 mM). […] It needs to be highlighted that in these conditions 100% of standard activity may be obtained in refrigerated conditions at 6° C., by applying the relevant salt concentration: NaCl (500 mM) and MgCh (100 mM).
To determine the effects of Mg^2+ ion concentration on PPR nucleolytic activity reaction is performed as described in Example 4 in solutions of varied content of Mg^2+ ions; 5 mM to 200 mM with 1 U enzyme in the reaction mixture. […] In all observed ranges of MgCh (5-200 mM) PPR concentrations show high specific activity.

[2] = tested on: pUC19 plasmid DNA; test: Effects of potential inhibitors (salts, urea, imidazole) on PPR nucleolytic activity
Method: (§2) In order to determine PPR nuclease nucleolytic activity serial dilutions of the enzyme are incubated in a reaction buffer containing 20 mM Tris-HCl (pH 8.0), 20 mM MgCb and 1 pg pUC19 plasmid DNA of 20 m ? volume for 10 min. The reaction is stopped by adding 5 m ? 25 mM DTT solution to a final concentration of 5 mM and the sample is heated to 55° C. for 10 min. As a control, 1 pg of pUC19 plasmid DNA is incubated without the addition of nuclease. Subsequently, the samples are loaded onto a 1% agarose gel and DNA separation is performed in gel at 130 voltage for 40 min. The remaining, nondegraded DNA in gel is stained with ethidium bromide and documented by taking a photography of the gel. 1 U activity is determined as the enzyme quantity essential for total degradation of 1 pg of pUC19 plasmid DNA in 10 min. at 37° C.
as §1
To determine the scope of enzyme tolerance to popular ion components used in the preparation of recombinant proteins, present in the reaction buffer, a nucleolytic reaction is performed as described in Example 4 in solutions of various amounts of individual potential inhibitors: NaCl, urea, ammonium sulphate, imidazole. The PPR nuclease retains high nucleolytic activity in the presence of increased concentrations of tested substances, as shown in Table 1.

[3] = tested on: pUC19 plasmid DNA; test: Thermal inactivation of PPR enzymatic activity in the presence of DTT, plasmid DNA degradation on agarose gel; conditions: incubation for 15 minutes in the presence of 1-5 mM DTT
Method: FIG. 5—showing PPR inactivation in various temperature conditions in the presence of 5 mM DTT. Complete PPR inactivation is obtained at 52° C.
as §2
To determine the parameters of PPR nuclease inactivation series of 0.2 ml test probes for PCR are prepared containing 100 U PPR in a 50 m ? reaction buffer containing 5 mM DTT, as described in Example 4A, excluding pUCIO plasmid DNA. Afterwards, the probes are incubated for 15 minutes at relevant temperatures and then for 5 minutes on ice. […] The degree of plasmid DNA degradation in the trials is analyzed on an agarose gel.

[4] = tested on: herring sperm genomic DNA; test: Nucleolytic activity of PPR, HL-SAN, Benzonase nucleases in buffers of varied salt concentration and pH
Method: FIG. 6—showing the comparison of nucleolytic activity values of PPR, HL-SAN and Benzonase® nucleases in buffers of various NaCl concentrations (0, 250, 500 mM), in pH 7.0, 8.0, 9.0, respectively. The remaining reaction conditions are as follows: temperature 22° C., 50 mM Tris, 20 mM MgCk (5 mM MgCk used for Benzonase®). […] The advantage of PPR over the HL-SAN nuclease, whose characteristics are the most similar, increases in correlation with decreasing pH (7.0-8.0).
(§3) In order to determine PPR nuclease specific activity serial dilutions of the enzyme are incubated in a reaction buffer containing 20 mM Tris-HCl (pH 8.0), 20 mM MgCh and 100 pg of herring sperm genomic DNA of 300 m ? volume at 37° C. for 30 min. The reaction is stopped by adding 300 m ? 4% solution of perchloric acid to 2% final concentration and sample incubation on ice for 60 min. As a control, 100 pg DNA is incubated without the addition of nuclease. Afterwards, the samples are centrifuged for 10 minutes until separation of the precipitate of non-degraded DNA. The content of free nucleotides and oligonucleotide fragments smaller than 10 bp is determined in supernatant by measuring absorbance at 260 nm wavelength. 1 U nuclease activity is determined as enzyme quantity causing increase of absorbance in the studied sample at 260 nm wavelength of 1.0 within 30 minutes of reaction at 37° C. […]

[5] = tested on: herring sperm genomic DNA; test: Nucleolytic activity of PPR, HL-SAN, Benzonase nucleases in DMEM medium
Method: FIG. 7—showing the comparison of values of the PPR, HL-SAN and Benzonase® nucleases' nucleolytic activities in DMEM medium, commonly used for mammalian in vitro cell culture, in which recombinant proteins, virus vectors and other biological therapeutics are produced.
as §1
Determination of the nucleolytic activity of PPR, HL-SAN and Benzonase® nucleases are performed as described in Example 4 at various temperatures: 6° C., 22° C. and 37° C. but instead of a reaction buffer DMEM medium (commonly used in cultures of mammalian cells, e.g. CHO, HEK, for the production of recombinant proteins and virus vectors) is used. […] At 37° C. […] The activity for every enzyme in conditions recommended by the manufacturer was assumed as 100% activity.

[6] = tested on: herring sperm genomic DNA; test: Nucleolytic activity of PPR, HL-SAN, Benzonase nucleases in PBS and TBS buffers; conditions: PBS, TBS and TBS with 500 mM NaCl; 6° C., 22° C. and 37° C.
Method: FIG. 8—showing the comparison of values of the PPR, HL-SAN and Benzonase® nucleases' nucleolytic activities in buffers with similar physiological salt concentration (PBS and TBS) with the addition of 500 mM NaCl, commonly used in the methodology of recombinant protein purification.
as §3

B1: PPR nuclease: non-specific nuclease that is the subject matter of the invention of SEQ ID NO: 2; thermolabile, recombinant, produced in E. coli (protein)
chain: MKYLLPTAAAGLLLLAAQPAMAASMEHHHHHHGSENLYFQSAPPSSFSKAKRLAVEIYQDHPTSFYCGCAITWQGKKGLPDLASCGYEVRKQEKRANRIEWEHVVPAENFGRAFVEWREGHPQCVNSKGKAYKGRSCATKMNPTYRSMQADLHNLTPAVGEVNGDRSNYAFLPWNGNNGAFYGQCDMKIDFKNRRADPPEQSRGAIARTYLYMNQEYKMALSSQQRQLMEAWNRQYPISTWECERDRRIANIQDNHNSFVLQACKKAGY
pH of highest nucleolytic activity ([1]; 500 mM NaCl, tested pH 6.0-10.0 at 0, 250, 500 mM NaCl, 20 mM MgCl2, 22° C., 1 U enzyme): 8.0
nucleolytic activity over tested temperature range ([1]; 6° C. to 45° C., 50 mM Tris, pH 8.0): maintains nucleolytic activity in the whole range of the tested temperatures
MgCl2 concentration range with high specific activity / enzyme active ([1]; MgCl2): 5 to 200 mM
temperature of highest nucleolytic activity ([1]; NaCl (500 mM) and MgCl2 (100 mM), 50 mM Tris, pH 8.0, tested 6° C. to 45° C.): 37 °C
Mg2+ concentration of highest nucleolytic activity ([1]; pH 6.5): 20 mM
optimum Mg2+ concentration range for nucleolytic activity ([1]; pH 6.5 buffer, ambient temperature (22° C.)): 20 to 50 mM
Mg2+ concentration of highest nucleolytic activity ([1]; pH 8.0): 150 mM
optimum Mg2+ concentration range for nucleolytic activity ([1]; pH 8.0 buffer, 37° C.): 50 to 150 mM
nucleolytic activity relative to standard activity ([1]; refrigerated conditions at 6° C., NaCl (500 mM) and MgCl2 (100 mM)): 100 % of standard activity
Non-inhibiting concentration ([2]; Ammonium sulphate): 0 to 200 mM
Non-inhibiting concentration ([2]; Imidazole): 0 to 400 mM
Non-inhibiting concentration ([2]; NaCl/KCl): 0 to 1400 mM
Non-inhibiting concentration ([2]; Urea): 0 to 6000 mM
temperature of irreversible inactivation [3]: 52 °C
nucleolytic activity compared with the other tested nucleases ([4]; 250 and 500 mM NaCl, pH 7.0, 8.0 and 9.0, 22° C., 50 mM Tris, 20 mM MgCl2): highest nucleolytic activity of all tested nucleases
nucleolytic activity compared with HL-SAN and Benzonase ([4]; lower pH (7.0, 8.0) and ambient temperature (22° C.)): significantly more active
nucleolytic activity relative to Benzonase nuclease ([5]; 37° C.): six times more active
nucleolytic activity compared with the other tested enzymes ([5]; all tested temperatures (6° C., 22° C., 37° C.)): highest nucleolytic activity of all tested enzymes
nucleolytic activity relative to HL-SAN and Benzonase ([5]; refrigerated conditions (6° C.) and ambient temperature (22° C.)): approx three times more active
nucleolytic activity compared with the other tested enzymes [6]: highest nucleolytic activity of all tested enzymes
